The text below walks through data of the supplement of paper PMC9112550, “Optimization of the antimicrobial peptide Bac7 by deep mutational scanning” (BMC Biology, 2022).

The series relates to Escherichia coli TOP10. As to the kind of experiment: shrunken log2 fold change of peptide-encoding DNA abundance (4.5 h post-induction vs induction); higher = less antimicrobial activity (less host growth inhibition). Particulars: time post-induction: 4.5 h; library: site-saturation at positions 5, 18, 19, 20.
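Further: peptides expressed intracellularly from a pBAD plasmid library in pooled LB shake-flask culture, induced with 0.3% L-arabinose, DNA abundance read by NGS, three biological replicates, DESeq2 with apeglm shrinkage.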

With RRIRMRPPRLPRPRPRPLQSPRP, the “shrunken log2 fold change” value was determined as 2.75.
With RRIRFRPPRLPRPRPRPQNWPRP the figure was -0.148.
The result for RRIRPRPPRLPRPRPRPYFFPRP reads -0.593; that for RRIRPRPPRLPRPRPRPIWGPRP, 0.0815.
In the case of RRIRFRPPRLPRPRPRPETEPRP, the “shrunken log2 fold change” value was -0.0257.
On to RRIRQRPPRLPRPRPRPKMYPRP, for which the “shrunken log2 fold change” value was -0.544.
On to RRIRQRPPRLPRPRPRPNILPRP, for which the “shrunken log2 fold change” value is -0.233.
On to RRIRLRPPRLPRPRPRPWHEPRP, for which the “shrunken log2 fold change” value is 0.0149.
Consider RRIRNRPPRLPRPRPRPVHQPRP, for which the “shrunken log2 fold change” value is -0.121.
For RRIRVRPPRLPRPRPRPWFSPRP, the “shrunken log2 fold change” value is -0.128.
With RRIRLRPPRLPRPRPRPYEHPRP the figure was -0.583.
On to RRIRERPPRLPRPRPRPYMHPRP, for which the “shrunken log2 fold change” value is -0.232.
Regarding RRIRWRPPRLPRPRPRPLVNPRP, the “shrunken log2 fold change” value was -0.0798.
Regarding RRIRRRPPRLPRPRPRPMVKPRP, the “shrunken log2 fold change” value came out at 0.0693.
With RRIRNRPPRLPRPRPRPNEQPRP the figure was -0.0324; with RRIRLRPPRLPRPRPRPGPPPRP, 0.445.
With RRIRRRPPRLPRPRPRPDMYPRP the figure was -0.315.
With RRIRMRPPRLPRPRPRPPWMPRP the figure was 0.537.
Consider RRIRERPPRLPRPRPRPPFHPRP, for which the “shrunken log2 fold change” value is -0.139.
The result for RRIRTRPPRLPRPRPRPSMHPRP reads -0.152.
The result for RRIRFRPPRLPRPRPRPKRDPRP reads 0.362.
Take RRIRPRPPRLPRPRPRPYHFPRP: the “shrunken log2 fold change” value is -0.245.
Consider RRIRARPPRLPRPRPRPWQEPRP, for which the “shrunken log2 fold change” value was -0.0122.
With RRIRARPPRLPRPRPRPAFIPRP the figure was 0.142; with RRIRLRPPRLPRPRPRPPGMPRP, 0.197.
With RRIRVRPPRLPRPRPRPCFAPRP the figure was 0.116; with RRIRNRPPRLPRPRPRPASFPRP, -0.00784.
For the sequence RRIRHRPPRLPRPRPRPWCSPRP, the “shrunken log2 fold change” value is -0.348.
Turning to RRIRNRPPRLPRPRPRPWLDPRP, the “shrunken log2 fold change” value is -0.029.
With RRIRDRPPRLPRPRPRPNGFPRP the figure was -0.0113.
The result for RRIRRRPPRLPRPRPRPKHDPRP reads 1.2.
As for RRIRGRPPRLPRPRPRPHINPRP, the “shrunken log2 fold change” value turned out to be 0.214.
The result for RRIRFRPPRLPRPRPRPGPAPRP reads 0.544.
With RRIRGRPPRLPRPRPRPYLCPRP, the “shrunken log2 fold change” value is 0.0395.
With RRIRGRPPRLPRPRPRPTDHPRP, the “shrunken log2 fold change” value turned out to be 0.335.
For the sequence RRIRSRPPRLPRPRPRPCWIPRP, the “shrunken log2 fold change” value was -0.0651.
On to RRIRSRPPRLPRPRPRPTYVPRP, for which the “shrunken log2 fold change” value was -0.098.
Take RRIRPRPPRLPRPRPRPFDMPRP: the “shrunken log2 fold change” value was found to be 0.08.
With RRIRERPPRLPRPRPRPHCWPRP the figure was -0.0487.
Regarding RRIRMRPPRLPRPRPRPGLVPRP, the “shrunken log2 fold change” value was found to be 0.294.
The result for RRIRMRPPRLPRPRPRPRDHPRP reads 0.324; that for RRIRIRPPRLPRPRPRPDACPRP, 0.183; that for RRIRKRPPRLPRPRPRPDAVPRP, 0.698.
With RRIRWRPPRLPRPRPRPLPWPRP, the “shrunken log2 fold change” value was 0.244.
For RRIRWRPPRLPRPRPRPHRHPRP, the “shrunken log2 fold change” value was -0.131.
With RRIRYRPPRLPRPRPRPTIFPRP the figure was -0.412; with RRIRNRPPRLPRPRPRPICNPRP, -0.203; with RRIRARPPRLPRPRPRPTREPRP, 0.573.
As for RRIRVRPPRLPRPRPRPIASPRP, the “shrunken log2 fold change” value was determined as 0.171.
With RRIRLRPPRLPRPRPRPQNWPRP the figure was 0.1.
Turning to RRIRSRPPRLPRPRPRPMNYPRP, the “shrunken log2 fold change” value is -0.162.
The result for RRIRMRPPRLPRPRPRPYWHPRP reads -0.305; that for RRIRTRPPRLPRPRPRPTFIPRP, -0.39.
With RRIRTRPPRLPRPRPRPEQRPRP the figure was -0.000852.
In the case of RRIRLRPPRLPRPRPRPIIYPRP, the “shrunken log2 fold change” value was -0.196.
As to RRIRWRPPRLPRPRPRPSSVPRP, the “shrunken log2 fold change” value stood at 0.278.
Regarding RRIRGRPPRLPRPRPRPFWSPRP, the “shrunken log2 fold change” value was determined as 0.679.
On to RRIRTRPPRLPRPRPRPGCSPRP, for which the “shrunken log2 fold change” value came out at 0.0133.
With RRIRERPPRLPRPRPRPHRWPRP the figure was 0.0978; with RRIRPRPPRLPRPRPRPQFWPRP, 0.249.
Consider RRIRERPPRLPRPRPRPVEKPRP, for which the “shrunken log2 fold change” value is -0.0163.
For RRIRMRPPRLPRPRPRPRVRPRP, the “shrunken log2 fold change” value came out at 0.921.
With RRIRARPPRLPRPRPRPMKTPRP the figure was 0.0191; with RRIRSRPPRLPRPRPRPDRDPRP, -0.0344; with RRIRGRPPRLPRPRPRPQSEPRP, 0.273.
The result for RRIRLRPPRLPRPRPRPDCRPRP reads 0.0593; that for RRIRQRPPRLPRPRPRPSIYPRP, -0.988; that for RRIRQRPPRLPRPRPRPIEYPRP, -0.0135.
For RRIRYRPPRLPRPRPRPYWLPRP, the “shrunken log2 fold change” value is -1.14.
With RRIRRRPPRLPRPRPRPALIPRP, the “shrunken log2 fold change” value came out at 1.05.
With RRIRWRPPRLPRPRPRPFNQPRP the figure was -0.494; with RRIRERPPRLPRPRPRPEQKPRP, -0.017; with RRIRPRPPRLPRPRPRPGPKPRP, 0.394.
With RRIRFRPPRLPRPRPRPAAKPRP the figure was -0.118; with RRIRVRPPRLPRPRPRPHVNPRP, -0.554; with RRIRARPPRLPRPRPRPEYKPRP, -0.0123.
With RRIRMRPPRLPRPRPRPMRAPRP the figure was 2.56.
On to RRIRSRPPRLPRPRPRPEAEPRP, for which the “shrunken log2 fold change” value was 0.841.
With RRIRPRPPRLPRPRPRPDLTPRP the figure was 0.168.
As for RRIRNRPPRLPRPRPRPARSPRP, the “shrunken log2 fold change” value was 0.679.
On to RRIRNRPPRLPRPRPRPSYWPRP, for which the “shrunken log2 fold change” value is -0.145.
For the sequence RRIRWRPPRLPRPRPRPNYFPRP, the “shrunken log2 fold change” value is -0.167.
The result for RRIRNRPPRLPRPRPRPMALPRP reads -0.0652; that for RRIRWRPPRLPRPRPRPHCGPRP, -0.0645.
As to RRIRDRPPRLPRPRPRPANEPRP, the “shrunken log2 fold change” value stood at 0.0557.
The result for RRIRNRPPRLPRPRPRPCLIPRP reads -0.018.
The result for RRIRRRPPRLPRPRPRPWRAPRP reads 0.181; that for RRIRQRPPRLPRPRPRPIMVPRP, -0.0523.
With RRIRCRPPRLPRPRPRPHFCPRP the figure was -0.649; with RRIRLRPPRLPRPRPRPVHKPRP, -0.256; with RRIRRRPPRLPRPRPRPFRDPRP, 0.506.
For RRIRERPPRLPRPRPRPYMNPRP, the “shrunken log2 fold change” value was -0.602.
With RRIRERPPRLPRPRPRPWEEPRP the figure was -0.0572; with RRIRVRPPRLPRPRPRPEVQPRP, 0.148.
With RRIRHRPPRLPRPRPRPAGNPRP, the “shrunken log2 fold change” value is 0.023.
Consider RRIRFRPPRLPRPRPRPEAKPRP, for which the “shrunken log2 fold change” value turned out to be 0.0369.
The result for RRIRGRPPRLPRPRPRPAEIPRP reads 0.076.
As to RRIRTRPPRLPRPRPRPHRTPRP, the “shrunken log2 fold change” value was -0.615.
As for RRIRQRPPRLPRPRPRPPGPPRP, the “shrunken log2 fold change” value is 0.255.
For RRIRFRPPRLPRPRPRPNAYPRP, the “shrunken log2 fold change” value was -0.347.
With RRIRPRPPRLPRPRPRPRNPPRP the figure was 0.405; with RRIRDRPPRLPRPRPRPGRFPRP, 0.315; with RRIRFRPPRLPRPRPRPFNLPRP, -0.66.
For RRIRGRPPRLPRPRPRPFKMPRP, the “shrunken log2 fold change” value is 0.143.
As for RRIRPRPPRLPRPRPRPYPTPRP, the “shrunken log2 fold change” value is -0.11.
With RRIRIRPPRLPRPRPRPMPPPRP the figure was -0.0836.
As to RRIRMRPPRLPRPRPRPTQMPRP, the “shrunken log2 fold change” value was found to be 0.195.
With RRIRTRPPRLPRPRPRPNEHPRP the figure was -0.198; with RRIRDRPPRLPRPRPRPTKVPRP, -0.274.
With RRIRGRPPRLPRPRPRPNQNPRP the figure was 0.4; with RRIRNRPPRLPRPRPRPKLGPRP, 0.055; with RRIRQRPPRLPRPRPRPWPTPRP, 0.00213.
The result for RRIRERPPRLPRPRPRPQLTPRP reads -0.576; that for RRIRYRPPRLPRPRPRPHNAPRP, -1.21.
Regarding RRIRSRPPRLPRPRPRPLEVPRP, the “shrunken log2 fold change” value is -0.103.
With RRIRIRPPRLPRPRPRPWNAPRP the figure was 0.0267.
Turning to RRIRCRPPRLPRPRPRPSQDPRP, the “shrunken log2 fold change” value is 0.0757.
With RRIRIRPPRLPRPRPRPAEKPRP the figure was -0.213; with RRIRYRPPRLPRPRPRPMRLPRP, -0.039.
RRIRDRPPRLPRPRPRPTSGPRP: the “shrunken log2 fold change” value was found to be 0.151.
As for RRIRYRPPRLPRPRPRPQHYPRP, the “shrunken log2 fold change” value is -0.466.
For RRIRTRPPRLPRPRPRPRYYPRP, the “shrunken log2 fold change” value was -0.112.
With RRIRWRPPRLPRPRPRPPHIPRP the figure was 0.696; with RRIRQRPPRLPRPRPRPDVQPRP, -0.0191.
The result for RRIRRRPPRLPRPRPRPCEQPRP reads -0.0395.
